From US20250163166A1 (REGENECORE BIOTECH, published 2025)
Positions count from the first letter of the chain named.

T1: human recombinant CD123 protein (human, UniProt P26951 19-300)
T1 construct: range 19-300
T1 sequence (looked up): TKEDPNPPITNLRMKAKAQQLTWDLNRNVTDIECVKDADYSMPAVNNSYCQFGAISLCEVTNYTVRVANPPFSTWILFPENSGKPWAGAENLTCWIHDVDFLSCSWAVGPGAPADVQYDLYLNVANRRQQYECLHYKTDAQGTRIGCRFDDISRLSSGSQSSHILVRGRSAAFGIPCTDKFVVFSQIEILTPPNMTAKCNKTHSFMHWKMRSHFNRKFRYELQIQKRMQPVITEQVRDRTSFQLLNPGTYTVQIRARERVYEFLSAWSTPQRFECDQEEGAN

B1: bispecific antibody BM#1 against CD33 and CD123 (bispecific antibody, human IgG1)
chain 1: QVQLVESGGGSVQAGGSLRLSCAASGYTYSSTCIGWFRQAPGKDREGVAFAYTGGGVTYADSVKGRFTISQDNAKNTVHLIMNSLKPEDTAMYYCAAKTRGGCWAAAAFYNYWGQGTQVTVSSEPKSCDKTHTCPPCPAPELLGGPSVFLFPPKPKDTLMISRTPEVTCVVVDVSHEDPEVKFNWYVDGVEVHNAKTKPREEQYNSTYRVVSVLTVLHQDWLNGKEYKCKVSNKALPAPIEKTISKAKGQPREPQVYTLPPSRDELTKNQVSLWCLVKGFYPSDIAVEWESNGQPENNYKTTPPVLVSDGSFTLYSKLTVDKSRWQQGNVFSCSVMHEALHNHYTQKSLSLSPGK
chain 2: not shown
notes: VHH-Fc heterodimer
B2: bispecific antibody BM#2 against CD33 and CD123 (bispecific antibody, human IgG1)
chain 1: B1 chain 1 with E265K, V307K, T313F
chain 2: not shown
notes: VHH-Fc heterodimer
B3: bispecific antibody BM#3 against CD33 and CD123 (bispecific antibody, human IgG1)
chain 1: B1 chain 1 with W274V
chain 2: not shown
notes: VHH-Fc heterodimer; also called BM-RT2831-#3
B4: bispecific antibody BM#4 against CD33 and CD123 (bispecific antibody, human IgG1)
chain 1: B1 chain 1 with E265K, W274V, V307K, T313F
chain 2: QVQLVESGGGSVQAGGSLKLSCAASRFIFSRCGMGWFRQAPGKERELVSTISGDGTTFYADSVKGRFTISQHNAATTLYLQMNSLKLEDTAVYYCAADCYNRKYWGQGTQVTVSSEPKSCDKTHTCPPCPAPELLGGPSVFLFPPKPKDTLMISRTPEVTCVVVDVSHEDPEVKFNWYVDGVEVHNAKTKPREEQYNSTYRVVSVLTVLHQDWLNGKEYKCKVSNKALPAPIEKTISKAKGQPREPQVYTLPPSRDELTKNQVSLTCLVEGFYPSDIAVEWESNGQPENNYKTTPPVLDSDGSFFLASDLTVDKSRWQQGNVFSCSVMHEALHNHYTQKSLSLSPGK
notes: VHH-Fc heterodimer; also called BM-RT2831-#4
B5: bispecific antibody BM#12 against CD33 and CD123 (bispecific antibody, human IgG1)
chain 1: B1 chain 1 with K278E, V307D, T313F, K317D
chain 2: not shown
notes: VHH-Fc heterodimer
B6: bispecific antibody BM#13 against CD33 and CD123 (bispecific antibody, human IgG1)
chain 1: not shown
chain 2: B4 chain 2 with E270K, D299V, F305T, D309K
notes: VHH-Fc heterodimer
B7: bispecific antibody BM#14 against CD33 and CD123 (bispecific antibody, human IgG1)
chain 1: B1 chain 1 with W274V, K278E, V307D, T313F, K317D
chain 2: B4 chain 2 with E257K, E270K, D299K, D309K
notes: VHH-Fc heterodimer
B8: bispecific antibody BM#21 against CD33 and CD123 (bispecific antibody, human IgG1)
chain 1: B1 chain 1 with D264K, W274T
chain 2: not shown
notes: VHH-Fc heterodimer; also called BM-RT2831-#21
B9: bispecific antibody BM#22 against CD33 and CD123 (bispecific antibody, human IgG1)
chain 1: B1 chain 1 with E265K, W274T
chain 2: not shown
notes: VHH-Fc heterodimer; also called BM-RT2831-#22
B10: bispecific antibody BM#23 against CD33 and CD123 (bispecific antibody, human IgG1)
chain 1: B1 chain 1 with E265D, W274T
chain 2: not shown
notes: VHH-Fc heterodimer; also called BM-RT2831-#23
B11: bispecific antibody BM#24 against CD33 and CD123 (bispecific antibody, human IgG1)
chain 1: B1 chain 1 with D264K, E265D, W274T, V307D, T313F, Y315A
chain 2: B4 chain 2 with E270Y, A307Y, D309V, K339E
notes: VHH-Fc heterodimer; also called BM-RT2831-#24
B12: bispecific antibody BM#26 against CD33 and CD123 (bispecific antibody, human IgG1)
chain 1: B1 chain 1 with D264K, E265K, W274T
chain 2: B4 chain 2 with A307Y, D309W, K339E
notes: VHH-Fc heterodimer
B13: bispecific antibody BM#27 against CD33 and CD123 (bispecific antibody, human IgG1)
chain 1: B1 chain 1 with D264K, E265D, W274T
chain 2: B4 chain 2 with E270Y, A307Y, D309W, K339E
notes: VHH-Fc heterodimer; also called BM-RT2831-#27
B14: bispecific antibody BM#28 against CD33 and CD123 (bispecific antibody, human IgG1)
chain 1: B1 chain 1 with D264K, E265D, W274T, V307K, T313F
chain 2: B4 chain 2 with E270Y, A307Y, K339E
notes: VHH-Fc heterodimer
B15: bispecific antibody BM#29 against CD33 and CD123 (bispecific antibody, human IgG1)
chain 1: B1 chain 1 with Q255R, D264K, W274T, V307D, T313F, Y315A
chain 2: B4 chain 2 with K260D, E270K, A307Y, D309V, K339E
notes: VHH-Fc heterodimer; also called BM-RT2831-#29
B16: bispecific antibody BM#30 against CD33 and CD123 (bispecific antibody, human IgG1)
chain 1: B1 chain 1 with Q255R, E265K, W274T, V307D, T313F, Y315A
chain 2: B4 chain 2 with K260D, A307Y, D309V
notes: VHH-Fc heterodimer; also called BM-RT2831-#30
B17: bispecific antibody BM#32 against CD33 and CD123 (bispecific antibody, human IgG1)
chain 1: B1 chain 1 with Q255R, E265D, W274T, V307D, T313F, Y315A
chain 2: B4 chain 2 with K260D, E270Y, A307Y, D309V
notes: VHH-Fc heterodimer; also called BM-RT2831-#32
B18: bispecific antibody BM#36 against CD33 and CD123 (bispecific antibody, human IgG1)
chain 1: not shown
chain 2: B4 chain 2 with E270K, T294S, V297A, F305A, A307V, D309K
notes: VHH-Fc heterodimer
B19: anti-CD123 single domain antibody (VHH)
VHH: QVQLVESGGGSVQAGGSLKLSCAASRFIFSRCGMGWFRQAPGKERELVSTISGDGTTFYADSVKGRFTISQHNAATTLYLQMNSLKLEDTAVYYCAADCYNRKYWGQGTQVTVSS
notes: Tested as crude extract from the pMECS clone and detected through an HA tag; also called second VHH

Columns and labels:
human FCγRIIIa receptor [1] = biological target: T2, human FCγRIIIa receptor (human, UniProt P08637 17-208, limits assumed); assay: BLI; Ratio against the hIgG (hIgG1) control, fits KD(hIgG)/KD(sample)
T2 construct: Used in solution as the 'antigen' in BLI; also called FcγIIIa receptor
Protocol: (§1) (3) Preparation of antigen working solution: 200 nM antigen (FCγRIIIa) in SD buffer was first prepared at and then serially diluted in 2 folds to prepare a total of 5 concentration gradients, in addition to which a zero concentration was prepared.
(§2) (11) Data analysis: related constants, such as KD, Kon, Koff, X2, Full R2 and the like were calculated in Data Analysis software.
(§3) In the examples of the present application, the modified bispecific antibody was subjected to BLI test to determine the affinity of the modified bispecific antibody to human FCγRIIIa.

human FCγRIIIa receptor [2] = biological target: T2, human FCγRIIIa receptor; assay: BLI (Octet 96), antibody loaded on sensor, FCγRIIIa 200 nM and 2-fold dilutions in solution
Protocol: as §1, §2, §3

[3] = biological target: T1, human recombinant CD123 protein; assay: ELISA of crude antibody extract on coated antigen, anti-HA detection; positive clone if OD450 is more than 5 times the control
Protocol: 2. CD33 protein or CD123 protein was diluted into 100 mM NaHCO₃ at pH 8.3. An ELISA plate was coated with 100 μg CD33 protein at 4° C. overnight. The next day, […] BSA-Biotin protein was added to the ELISA plate.
3. 100 μL of crude antibody extract obtained in the above step was transferred to the ELISA plate into which the antigen was added, and incubated at room temperature for 1 h.

T2 sequence (P08637 17-208 limits assumed): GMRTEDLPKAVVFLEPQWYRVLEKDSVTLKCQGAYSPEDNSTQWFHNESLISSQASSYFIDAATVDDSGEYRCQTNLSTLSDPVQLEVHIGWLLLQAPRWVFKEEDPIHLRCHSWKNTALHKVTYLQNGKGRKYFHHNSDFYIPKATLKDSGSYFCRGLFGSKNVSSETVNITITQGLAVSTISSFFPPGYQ

Binder	Ratio (human FCγRIIIa receptor [1])	Kd (human FCγRIIIa receptor [2]) [nM]	binding result [3]
B1	1.29	68.9	–
B2	1.12	79.1	–
B3	1	88.2	–
B4	1.19	74.2	–
B5	1.65	53.8	–
B6	1.42	62.5	–
B7	1.61	55.2	–
B8	1.04	85.4	–
B9	1.03	86.3	–
B10	1.08	82.1	–
B11	1.06	83.3	–
B12	1.15	76.9	–
B13	0.91	96.9	–
B14	1.45	61.3	–
B15	1.2	73.9	–
B16	1.27	69.6	–
B17	1.17	76	–
B18	1.38	64.2	–
B19	–	–	binds
